Source: patent US12590158 (XIYUAN ANJIAN MEDICINE SHANGHAI, dated 2026)

Legend:
[1] = target: T1, human TrkB expressed on CHO cells (TrkB/CHO, ThermoFisher K1491) (human, UniProt Q16620 32-822); assay: flow cytometry on TrkB/CHO cells, FITC goat anti-human Fc
T1 construct: whole, on cells
Procedure: (§1) CHO-K1 was used as a negative control. The binding of the humanized antibodies to the four cell lines was detected by flow cytometry.
(§2) The cells were cultured according to the manufacturer's instruction. The cells were harvested in the logarithmic growth phase, re-suspended in flow buffer (PBS+2% FBS, pH 7.4), and added into 96-well plate, 10^5 cells per well (50 µl). 50 µl of 100 µg/mL humanized anti-TrkA antibody was added, incubated at room temperature for 60 min, and centrifuged at 1200 rpm. The supernatant was discarded and the cells were washed 3 times. FITC-labeled goat anti-human Fc antibody (Abeam, ab97224) was diluted to 5 µg/mL with flow buffer and used to re-suspend the cells, incubated at room temperature for 30 min in the dark, centrifuged, and the supernatant was discarded. After washing 3 times, the cells were re-suspended with 7AAD solution (Biolegend, 420403), incubated for 10 min at room temperature, and the binding of the antibody was detected with a flow cytometer (BioRad, ZE5).

[2] = target: T2, human TrkC expressed on CHO cells (TrkC/CHO, ThermoFisher K1515) (human, UniProt Q16288 32-839); assay: flow cytometry on TrkC/CHO cells, FITC goat anti-human Fc
T2 construct: whole, on cells
Procedure: as §1, §2

[3] = target: T3, human TrkB extracellular region protein (Yiqiao Shenzhou 10047-H03H) (human, UniProt Q16620 32-430); assay: ELISA, plate coated with human TrkB extracellular region protein, HRP goat anti-mouse Fc detection
T3 construct: extracellular domain; Bought protein
Procedure: (§3) Example 2: ELISA Detection of the Binding of Murine Anti-TrkA Antibodies to Human TrkA The binding abilities of the anti-TrkA antibodies were detected by using a TrkA extracellular region (33-417) protein comprising human Fc (Beijing ACROBiosystems Co., Ltd., TRA-H5259). Each well of a 96-well microtiter plate was coated with 50 ng of human TrkA, washed and blocked, and then added with serially diluted antibodies, and incubated at room temperature for 1 hour. After washing three times, horseradish peroxidase-conjugated goat anti-mouse Fc antibody (Biolegend, 405306) was added and incubated at room temperature for 1 hour. After washing three time, tetramethylbenzidine (TMB, Biolegend, 421101) was added for color development. 1M HCl was used to terminate the color development, and the absorbance values were read at 450 nm with a microplate reader.
(§4) Example 7: Detection of the Binding of Murine Anti-TrkA Antibodies to TrkA Proteins of the Same Family Each well of a 96-well microtiter plate was coated with 50 ng of human TrkA extracellular region protein, human TrkB extracellular region protein (Beijing Yiqiao Shenzhou Technology Co., Ltd., 10047-H03H), human TrkC extracellular region protein (Beijing Yiqiao Shenzhou Technology Co., Ltd., 10048-H03H). The bindings of the anti-TrkA antibodies to human TrkA and the two proteins of the same family were detected according to the method described in Example 2.

[4] = target: T4, TrkA extracellular region (33-417) protein comprising human Fc (ACROBiosystems TRA-H5259) (human, UniProt P04629 33-417); assay: BLI (ForteBio Octet Red96), TrkA (33-417)-hFc captured on anti-human Fc sensor, antibody in solution
T4 construct: range 33-417; Bought fusion protein; also called human TrkA (33-417); human TrkA extracellular region
Text: Example 3: Affinity Assay of Murine Anti-TrkA Antibodies Binding to Human TrkA The affinities of the antibodies were detected with Biomolecular Interaction Detection Platform (ForteBio Octet Red96 (PALL)).
Human TrkA extracellular region (33-417) protein containing human Fc tag was fixed onto a chip by using an anti-human Fc capture sensor (Fortebio, 18-5088), and then bound to gradient concentrations of anti-TrkA antibody.

[5] = target: T5, full-length human TrkA expressed on cells (human, UniProt P04629 33-796); assay: cell-based or functional assay
[6] = target: T6, rat TrkA extracellular region fusion protein (fused to human Fc) (Yiqiao Shenzhou 80243-R03H) (rat, UniProt P35739 33-418); assay: ELISA, plate coated with rat TrkA extracellular region-hFc, HRP goat anti-mouse Fc detection
T6 construct: extracellular domain; Bought fusion protein
Procedure: as §3
(§5) In addition, the species cross-reactivities of anti-TrkA antibodies were detected with monkey TrkA (Hangzhou Haoyang Biotechnology Co., Ltd., HSP037-05), rat TrkA (Beijing Yiqiao Shenzhou Technology Co., Ltd., 80243-R03H), mouse TrkA (Beijing Yiqiao Shenzhou Technology Co., Ltd., 51103-M02H) extracellular region fusion protein (fused to human Fc).

[7] = target: T4, TrkA extracellular region (33-417) …; assay: ELISA, coated human TrkA (33-417)-hFc, anti-mouse Fc-HRP
Procedure: as §3

[8] = target: T7, human TrkC extracellular region protein (Yiqiao Shenzhou 10048-H03H) (human, UniProt Q16288 32-429); assay: ELISA, plate coated with human TrkC extracellular region protein, HRP goat anti-mouse Fc detection
T7 construct: extracellular domain; Bought protein
Procedure: as §3, §4

[9] = target: T5, full-length human TrkA expressed on …; assay: cell-based or functional assay; remark: listed apart in the source
[10] = target: T4, TrkA extracellular region (33-417) …; assay: competition ELISA, coated TrkA (33-417)-hFc, antibody titrated, competitor biotin-labeled human NGF
Procedure: Each well of a 96-well microtiter plate was coated with 50 ng of TrkA extracellular region (33-417) protein fused to human Fc, washed three times and blocked with 3% BSA for 1 hour. […] Each well was added with 100 μl and incubated at room temperature for 30 minutes. […] Streptavidin-labeled horseradish peroxidase (Streptavidin-HRP, Biolegend, 405210) was added and incubated for 0.5 hours. After washing three times, TMB was added to the plate, and the absorbance at 450 nm was read by a microplate reader after the color development was terminated.

[11] = target: fusion protein (fused to human Fc) containing only the portion of human TrkA extracellular region that binds NGF (TrkA 192-402) (ACROBiosystems TRA-H5258) (human) (UniProt P04629); assay: ELISA, coated human TrkA (192-402)-hFc
[12] = target: T8, mouse TrkA extracellular region fusion protein (fused to human Fc) (Yiqiao Shenzhou 51103-M02H) (mouse, UniProt Q3UFB7 34-420); assay: ELISA, plate coated with mouse TrkA extracellular region-hFc, HRP goat anti-mouse Fc detection
T8 construct: extracellular domain; Bought fusion protein
Procedure: as §3, §5

[13] = target: T5, full-length human TrkA expressed on …; assay: cell-based or functional assay; remark: listed apart in the source

fusion protein (fused to human Fc) containing only the portion of human TrkA extracellular region that binds NGF (TrkA 192-402) (ACROBiosystems TRA-H5258) (human), sequence (P04629 192-402 limits assumed, form in doubt): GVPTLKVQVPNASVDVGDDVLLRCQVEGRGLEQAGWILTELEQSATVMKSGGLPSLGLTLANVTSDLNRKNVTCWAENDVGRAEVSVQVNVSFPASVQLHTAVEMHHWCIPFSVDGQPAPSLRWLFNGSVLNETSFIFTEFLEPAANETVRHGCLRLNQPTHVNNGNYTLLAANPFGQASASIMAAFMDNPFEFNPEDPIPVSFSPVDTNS
T5 sequence (P04629 33-796): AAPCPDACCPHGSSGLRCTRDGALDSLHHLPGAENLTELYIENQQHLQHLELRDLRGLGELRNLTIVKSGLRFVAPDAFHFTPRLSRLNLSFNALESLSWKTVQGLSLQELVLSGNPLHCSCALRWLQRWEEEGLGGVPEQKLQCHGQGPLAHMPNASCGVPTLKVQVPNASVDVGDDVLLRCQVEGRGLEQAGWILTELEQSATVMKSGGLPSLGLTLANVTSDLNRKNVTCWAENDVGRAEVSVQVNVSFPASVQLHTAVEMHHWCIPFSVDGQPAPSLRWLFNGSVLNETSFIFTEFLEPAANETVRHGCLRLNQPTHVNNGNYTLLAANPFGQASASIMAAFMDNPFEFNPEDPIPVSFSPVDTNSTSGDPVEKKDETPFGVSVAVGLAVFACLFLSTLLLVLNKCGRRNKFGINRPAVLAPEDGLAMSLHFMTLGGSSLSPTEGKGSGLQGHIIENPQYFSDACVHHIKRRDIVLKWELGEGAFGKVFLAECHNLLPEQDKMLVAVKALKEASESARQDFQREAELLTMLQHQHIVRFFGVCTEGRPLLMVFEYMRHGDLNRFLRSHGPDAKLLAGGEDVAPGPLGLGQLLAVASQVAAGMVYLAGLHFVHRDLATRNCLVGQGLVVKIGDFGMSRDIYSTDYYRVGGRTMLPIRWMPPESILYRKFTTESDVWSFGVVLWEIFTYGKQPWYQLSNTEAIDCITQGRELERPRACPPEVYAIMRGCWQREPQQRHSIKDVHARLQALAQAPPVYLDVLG
T8 sequence (Q3UFB7 34-420, stated change not applied): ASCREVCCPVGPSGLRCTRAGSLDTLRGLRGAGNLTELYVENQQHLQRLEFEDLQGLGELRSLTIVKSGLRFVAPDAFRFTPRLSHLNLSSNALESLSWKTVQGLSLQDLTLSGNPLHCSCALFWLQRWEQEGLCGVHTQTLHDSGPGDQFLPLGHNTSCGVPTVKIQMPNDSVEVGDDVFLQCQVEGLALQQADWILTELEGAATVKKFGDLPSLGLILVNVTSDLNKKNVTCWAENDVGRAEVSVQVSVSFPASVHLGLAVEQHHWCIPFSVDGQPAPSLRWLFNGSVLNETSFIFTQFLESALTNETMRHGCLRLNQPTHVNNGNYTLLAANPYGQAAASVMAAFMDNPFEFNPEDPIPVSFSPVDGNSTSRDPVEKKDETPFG
T6 sequence (P35739 33-418, stated change not applied): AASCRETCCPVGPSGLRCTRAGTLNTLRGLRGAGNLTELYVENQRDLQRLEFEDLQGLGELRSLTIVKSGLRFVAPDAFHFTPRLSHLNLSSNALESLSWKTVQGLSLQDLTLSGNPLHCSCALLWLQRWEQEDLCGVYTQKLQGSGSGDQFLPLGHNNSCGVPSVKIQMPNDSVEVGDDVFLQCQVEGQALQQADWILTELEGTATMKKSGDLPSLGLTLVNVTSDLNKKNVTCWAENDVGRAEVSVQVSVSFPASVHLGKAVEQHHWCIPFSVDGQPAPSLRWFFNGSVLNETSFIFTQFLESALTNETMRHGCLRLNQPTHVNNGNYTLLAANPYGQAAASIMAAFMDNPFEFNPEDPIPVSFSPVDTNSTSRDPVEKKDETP
T4 sequence (P04629 33-417 limits assumed): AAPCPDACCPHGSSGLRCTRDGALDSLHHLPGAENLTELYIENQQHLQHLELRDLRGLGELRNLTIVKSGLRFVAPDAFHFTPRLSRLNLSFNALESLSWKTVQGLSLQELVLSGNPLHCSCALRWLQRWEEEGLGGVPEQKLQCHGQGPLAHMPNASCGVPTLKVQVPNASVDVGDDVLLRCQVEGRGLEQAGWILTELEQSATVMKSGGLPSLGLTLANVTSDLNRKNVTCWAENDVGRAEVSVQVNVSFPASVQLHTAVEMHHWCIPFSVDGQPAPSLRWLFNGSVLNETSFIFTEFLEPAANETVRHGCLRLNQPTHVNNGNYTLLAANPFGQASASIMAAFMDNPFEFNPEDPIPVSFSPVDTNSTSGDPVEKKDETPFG
T3 sequence (Q16620 32-430): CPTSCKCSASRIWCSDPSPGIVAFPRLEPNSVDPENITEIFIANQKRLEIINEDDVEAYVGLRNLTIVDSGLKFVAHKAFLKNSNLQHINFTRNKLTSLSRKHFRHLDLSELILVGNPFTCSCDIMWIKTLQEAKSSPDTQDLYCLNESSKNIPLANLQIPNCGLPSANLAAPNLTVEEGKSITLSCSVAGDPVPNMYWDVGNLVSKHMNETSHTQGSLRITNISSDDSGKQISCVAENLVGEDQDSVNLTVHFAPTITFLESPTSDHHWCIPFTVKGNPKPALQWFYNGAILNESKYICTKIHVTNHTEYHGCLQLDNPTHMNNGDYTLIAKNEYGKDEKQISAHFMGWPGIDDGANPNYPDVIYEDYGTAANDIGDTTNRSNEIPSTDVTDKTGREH
T2 sequence (Q16288 32-839): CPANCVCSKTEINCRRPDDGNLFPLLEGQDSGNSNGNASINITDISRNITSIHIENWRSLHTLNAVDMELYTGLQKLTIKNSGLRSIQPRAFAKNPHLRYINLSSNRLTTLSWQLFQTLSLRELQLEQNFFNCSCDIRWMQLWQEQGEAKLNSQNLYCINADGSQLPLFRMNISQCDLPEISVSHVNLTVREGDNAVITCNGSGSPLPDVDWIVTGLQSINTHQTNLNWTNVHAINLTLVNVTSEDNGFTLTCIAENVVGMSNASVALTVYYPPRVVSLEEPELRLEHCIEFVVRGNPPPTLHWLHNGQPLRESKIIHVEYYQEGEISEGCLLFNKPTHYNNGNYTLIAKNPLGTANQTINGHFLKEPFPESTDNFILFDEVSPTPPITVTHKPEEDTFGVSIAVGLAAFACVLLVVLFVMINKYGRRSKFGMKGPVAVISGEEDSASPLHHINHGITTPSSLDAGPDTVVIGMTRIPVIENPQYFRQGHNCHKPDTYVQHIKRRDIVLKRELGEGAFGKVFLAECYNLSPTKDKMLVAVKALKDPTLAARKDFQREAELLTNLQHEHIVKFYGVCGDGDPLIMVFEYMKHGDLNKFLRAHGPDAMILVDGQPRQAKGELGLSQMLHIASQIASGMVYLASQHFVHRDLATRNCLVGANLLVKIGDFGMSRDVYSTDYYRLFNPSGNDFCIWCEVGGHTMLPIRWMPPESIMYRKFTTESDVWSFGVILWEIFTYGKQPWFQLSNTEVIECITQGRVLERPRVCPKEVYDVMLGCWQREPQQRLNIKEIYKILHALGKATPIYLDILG
T1 sequence (Q16620 32-822): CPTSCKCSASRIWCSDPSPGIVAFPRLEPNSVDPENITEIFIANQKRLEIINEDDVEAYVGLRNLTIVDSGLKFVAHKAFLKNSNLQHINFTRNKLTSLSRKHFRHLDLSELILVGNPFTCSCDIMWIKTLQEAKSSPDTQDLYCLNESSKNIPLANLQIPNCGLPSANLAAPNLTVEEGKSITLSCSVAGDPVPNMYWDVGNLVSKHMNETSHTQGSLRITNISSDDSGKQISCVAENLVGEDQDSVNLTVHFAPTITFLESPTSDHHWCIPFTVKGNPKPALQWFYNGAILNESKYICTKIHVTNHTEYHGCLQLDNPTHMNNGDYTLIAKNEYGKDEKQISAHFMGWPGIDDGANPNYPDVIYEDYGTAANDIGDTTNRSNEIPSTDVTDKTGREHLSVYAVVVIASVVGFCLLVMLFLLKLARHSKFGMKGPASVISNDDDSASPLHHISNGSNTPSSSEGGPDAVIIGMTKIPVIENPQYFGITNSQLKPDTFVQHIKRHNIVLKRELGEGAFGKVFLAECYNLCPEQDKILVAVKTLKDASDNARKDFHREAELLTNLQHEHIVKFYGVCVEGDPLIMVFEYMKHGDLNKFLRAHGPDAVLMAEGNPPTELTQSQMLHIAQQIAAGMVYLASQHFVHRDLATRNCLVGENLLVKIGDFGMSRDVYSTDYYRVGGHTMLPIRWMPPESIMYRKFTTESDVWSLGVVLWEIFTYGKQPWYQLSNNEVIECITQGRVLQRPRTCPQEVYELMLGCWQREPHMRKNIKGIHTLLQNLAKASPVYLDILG

binding result [1] | binding result [2] | binding result [3] | Kd [4] | koff [4] | kon [4] | inhibition of NGF-induced TrkA/Ba/F3 cell proliferation at 2.5 µg/mL (16.67 nM) or higher [5] | binding result [6] | EC50 [7] | binding result [8] | IC50 of inhibiting NGF-induced TF-1 cell proliferation [9] | IC50 [10] | EC50 [11] | binding result [12] | IC50 of inhibiting NGF-induced TrkA/Ba/F3 cell proliferation [13] | Binder
– | – | no binding (tested: 66.67 nM) | 0.0162 nM | 2.09e-05 s⁻¹ | 1.29e+06 M⁻¹ s⁻¹ | 100% | binds | 0.204 nM | no binding (tested: 66.67 nM) | 2.14 nM | 1.5 nM | 0.173 nM | binds | 0.413 nM | anti-TrkA antibody 33H5 (antibody, V domains shown, Murine monoclonal antibody purified from hybridoma medium by protein G) VH: QVQLQQPGAELVKPGASVQLSCKASGYTFTSYWIHWVKQRPGQGLEWIGEINPNNGLTNYIEKFKNKATLTIDKSSNTAYMQLSGLTPEDSAVYYCAKYGNYVAFAYWGQGTLVTVSA VL: DIQMTQSPASLSASVGDTVTITCRASENIYTYLAWYQQKQGKSPQLLVHNTKTLAEGVPSRFSGSGSGTQFSLKISSLQPEDFGTYYCQHHYGVPLTFGAGTKLELK
– | – | no binding (tested: 66.67 nM) | 0.0155 nM | 1.88e-05 s⁻¹ | 1.21e+06 M⁻¹ s⁻¹ | 100% | binds | 0.242 nM | no binding (tested: 66.67 nM) | 6.49 nM | 1.76 nM | 0.154 nM | binds | 0.422 nM | anti-TrkA antibody 5A3 (antibody, V domains shown, Murine monoclonal antibody purified from hybridoma medium by protein G) VH: QVQLQQSGAELMKPGASVKISCKAIGYTFSRYWIEWVKQRPGHGLEWIGEILPGRGVTNYNENFKGKATFTVDISSTTTYIQFSSLTSEDSAVYYCARSNYGDYDFWGQGTSLTVSS VL: QTVVTQESALTTSPGETVTLTCRSSSGAVTTSNHANWVQEKPDHLFTSLMGGTNNRAPGVPARFSGSLIGDKAALTITGAQTEDEAIYFCALWYSNHWVFGGGTKLTVL

More lines, now with the values behind:

Binder | binding result [1] | binding result [2] | binding result [3] | Kd [4] | koff [4] | kon [4] | inhibition of NGF-induced TrkA/Ba/F3 cell proliferation at 2.5 µg/mL (16.67 nM) or higher [5] | binding result [6] | EC50 [7] | binding result [8] | IC50 of inhibiting NGF-induced TF-1 cell proliferation [9] | IC50 [10] | EC50 [11] | binding result [12] | IC50 of inhibiting NGF-induced TrkA/Ba/F3 cell proliferation [13]
humanized anti-TrkA antibody 42F5-15 (antibody, V domains shown, 42F5-01 with NG55-56 of the VH mutated to NA55-56) VH: QVQLVQSGAEVKKPGASVKVSCKSSGYTFTNYWMHWVRQAPGQGLEWMGEIYPNNARVNYNEKFKNRVTMTVDISISTAYMELSRLRSDDTAVYYCARSRYDPMEDWGQGTTVTVSS VL: DVQLTQSPSSLSASVGDRVTITCSASSSVGYMHWYQQKPGKAPKRLIYDTSKLASGVPSRFSGSGSGTDYTLTISSLQPEDFATYFCQQWSSIPLTFGQGTRLEIK | no binding | no binding | – | – | – | – | – | – | – | – | – | – | – | – | –
anti-TrkA antibody 26E9 (antibody, V domains shown, Murine monoclonal antibody purified from hybridoma medium by protein G) VH: QVQLQQPGAELVKPGASVKLSCKSSGYTFTNYWMHWVKQRPGQGLEWIGEIYPSNGRTNYNEKFKNRATLTVDISSSTAYMQLSSLTSEDSAVYYCARSRYDPMEDWGQGTSVTVSS VL: QIVLTQSPAIMSASPGEKVTMTCSASSSVGYMHWYQQKSGTSPKRWIYDTSKLASGVPTRFSGSGSGTSYSLTISSMEAEDAATYYCQQWSSIPLTFGSGTKLEIK | – | – | no binding (tested: 66.67 nM) | 0.0267 nM | 2.46e-05 s⁻¹ | 923000 M⁻¹ s⁻¹ | 100% | binds | 0.099 nM | no binding (tested: 66.67 nM) | 1.39 nM | 2.04 nM | 0.068 nM | binds | 1.54 nM
anti-TrkA antibody 42F5 (antibody, V domains shown, Murine monoclonal antibody purified from hybridoma medium by protein G) VH: QVQLQQPGAELVKPGASVKLSCKSSGYTFTNYWMHWVRQRPGQGLEWIGEIYPNNGRVNYNEKFKNRATLTVDISSSTAYMQLSSLTSEDSAVYYCARSRYDPMEDWGQGTSVTVSS VL: QVVLTQSPAIMSASPGEKVTMTCSASSSVGYMHWYQQKSGTSPKRWIYDTSKLASGVPTRFSGSGSGTSYSLTISSMEAEDAATYFCQQWSSIPLTFGSGTRLEIK | – | – | no binding (tested: 66.67 nM) | 0.00218 nM | 2.07e-06 s⁻¹ | 947000 M⁻¹ s⁻¹ | 100% | binds | 0.128 nM | no binding (tested: 66.67 nM) | 1.3 nM | 2.35 nM | 0.134 nM | binds | 1.25 nM
anti-TrkA antibody 11G8 (antibody, V domains shown, Murine monoclonal antibody purified from hybridoma medium by protein G) VH: QVQLQQPGAELVKPGASVKLSCKASGYTFTSYWMHWVKQRPGQGLEWIGEINPNNGLTNYDEKFKTKATLTIDKSSRTAYIQLSSLTSEDSAVYYCAKYGNYVAFAFWGQGTLVTVSA VL: DIQMTQSPASLSATVGETVTITCRASENIYSYVAWYQQKQGKSPQLLVHNAKTLAEGVPSRFSGSGSGTQFSLKINGLHPEDFGSYYCQHHYGIPLTFGAGTKLELK | – | – | no binding (tested: 66.67 nM) | < 0.001 nM | < 1e-07 s⁻¹ | 992000 M⁻¹ s⁻¹ | 100% | binds | 0.114 nM | no binding (tested: 66.67 nM) | 1.09 nM | 1.9 nM | 0.071 nM | binds | 1.65 nM
